Changes are numbered by the printed parent chain.
T1: Mcm10 deltaCTD (Saccharomyces cerevisiae, UniProt P32354 1-357, del358-571)
T1 sequence: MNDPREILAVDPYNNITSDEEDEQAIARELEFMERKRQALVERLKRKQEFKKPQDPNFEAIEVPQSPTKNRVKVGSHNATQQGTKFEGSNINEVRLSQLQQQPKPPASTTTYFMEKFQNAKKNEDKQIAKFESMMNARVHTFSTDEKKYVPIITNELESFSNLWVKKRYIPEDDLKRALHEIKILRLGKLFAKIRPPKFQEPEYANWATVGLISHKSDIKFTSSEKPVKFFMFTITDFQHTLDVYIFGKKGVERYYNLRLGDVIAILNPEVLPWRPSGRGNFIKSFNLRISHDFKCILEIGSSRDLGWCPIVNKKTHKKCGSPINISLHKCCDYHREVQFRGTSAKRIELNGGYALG

T2: Mcm10 wild-type (Saccharomyces cerevisiae, UniProt P32354 1-571)
T2 sequence: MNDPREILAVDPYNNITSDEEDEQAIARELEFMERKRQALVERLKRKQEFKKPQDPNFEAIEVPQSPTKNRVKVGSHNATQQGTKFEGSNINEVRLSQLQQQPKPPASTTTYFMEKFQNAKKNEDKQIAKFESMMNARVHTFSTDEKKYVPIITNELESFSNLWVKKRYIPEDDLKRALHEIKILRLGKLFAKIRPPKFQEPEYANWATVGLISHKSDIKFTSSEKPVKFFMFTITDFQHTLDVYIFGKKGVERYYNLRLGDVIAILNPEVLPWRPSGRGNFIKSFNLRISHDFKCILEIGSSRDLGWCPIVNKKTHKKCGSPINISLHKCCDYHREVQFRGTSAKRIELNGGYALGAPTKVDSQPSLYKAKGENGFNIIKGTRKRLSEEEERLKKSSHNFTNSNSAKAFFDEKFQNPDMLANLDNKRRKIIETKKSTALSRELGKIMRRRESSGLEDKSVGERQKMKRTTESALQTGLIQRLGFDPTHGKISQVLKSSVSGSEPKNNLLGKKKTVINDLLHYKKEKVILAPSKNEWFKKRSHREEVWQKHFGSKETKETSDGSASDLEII

T3: Mcm10 3A (OB-fold mutant) (Saccharomyces cerevisiae, UniProt P32354 1-571, F230A;Y245A;F247A)
T3 sequence: T2 sequence with F230A, Y245A, F247A

B1: FAM-labelled dC12 ssDNA (ssDNA)
DNA: CCCCCCCCCCCC

Tests used:
[1] = tested on: T4, sCMGE10 (single Cdc45-MCM-GINS-Polε with Mcm10); assay: cryo-EM structure of complex ([…]-3.[…] Å); assay type: binding, Saccharomyces cerevisiae; conditions: assembled with 5 mM ATP, magnesium acetate, pH 7.6, bound to origin DNA; MCM ATPase sites
T4 construct: gene MCM2; His- or TwinStrepII-tagged GINS; MCM loaded as Mcm2-7/Cdt1; wild type; ATP/ADP in MCM ATPase tier; with Cell division control protein 45; DNA replication complex GINS protein PSF1; DNA replication complex GINS protein PSF2; DNA replication complex GINS protein PSF3; DNA replication complex GINS protein SLD5; DNA polymerase epsilon catalytic subunit A; DNA polymerase epsilon subunit B; DNA polymerase epsilon subunit C; DNA polymerase epsilon subunit D; Minichromosome maintenance protein 10

[2] = biological target: T1, Mcm10 deltaCTD; assay: MST; 10 mM Mg acetate; MST: 25 mM HEPES-KOH pH 7.6, 100 mM K-glutamate, 10 mM Mg acetate, 0.02% NP-40, 0.5 mM TCEP, 5 nM ssDNA, room temperature, 30 min; CMG assembly/EM: same buffer; conditions: protein: recombinant; tags: N-terminal 6xHis, C-terminal 3xFlag; label: FAM (after the 3' end)
[3] = biological target: T2, Mcm10 wild-type; assay: as above; conditions: protein: recombinant; tags: N-terminal His, C-terminal Flag (pHis-Mcm10-Flag); label: FAM (after the 3' end)
[4] = biological target: T3, Mcm10 3A (OB-fold mutant); assay: as above; conditions: protein: recombinant; label: FAM (after the 3' end)

Molecule	cryo-EM structure of complex (3.7-3.9 Å) [1]	binding result [2]	binding result [3]	binding result [4]
Nc1ncnc2c1ncn2[C@@H]1O[C@H](COP(=O)(O)OP(=O)(O)O)[C@@H](O)[C@H]1O [ADP]	Cryo-EM density for nucleotide ATP and ADP for consensus, ssDNA and nexus map	–	–	–
Nc1ncnc2c1ncn2[C@@H]1O[C@H](COP(=O)(O)OP(=O)(O)OP(=O)(O)O)[C@@H](O)[C@H]1O [ATP]	Cryo-EM density for nucleotide ATP and ADP for consensus, ssDNA and nexus map	–	–	–
B1	–	binds	binds	no binding

Reference: paper PMC11327109, “Unwinding of a eukaryotic origin of replication visualized by cryo-EM” (Nature Structural & Molecular Biology, 2024)
